Results: article PMC6288126, “Structural insights into DDA1 function as a core component of the CRL4-DDB1 ubiquitin ligase” (Cell Discovery, 2018)

Target: T1, DDB1 (DNA damage-binding protein 1) (human, UniProt Q16531 1-1140)
T1 construct: triple beta-propeller (BPA, BPB, BPC) and CTD; also called free DDB1; purified DDB1; source: purified recombinant protein
Assay: BLI; affinity-tagged DDA1 FL and fragments immobilised on the probe as ligand, free DDB1 as analyte at different concentrations; Kd from the dose response curve of maximal binding signals
Conditions: both partners purified

T1 sequence (Q16531 whole entry): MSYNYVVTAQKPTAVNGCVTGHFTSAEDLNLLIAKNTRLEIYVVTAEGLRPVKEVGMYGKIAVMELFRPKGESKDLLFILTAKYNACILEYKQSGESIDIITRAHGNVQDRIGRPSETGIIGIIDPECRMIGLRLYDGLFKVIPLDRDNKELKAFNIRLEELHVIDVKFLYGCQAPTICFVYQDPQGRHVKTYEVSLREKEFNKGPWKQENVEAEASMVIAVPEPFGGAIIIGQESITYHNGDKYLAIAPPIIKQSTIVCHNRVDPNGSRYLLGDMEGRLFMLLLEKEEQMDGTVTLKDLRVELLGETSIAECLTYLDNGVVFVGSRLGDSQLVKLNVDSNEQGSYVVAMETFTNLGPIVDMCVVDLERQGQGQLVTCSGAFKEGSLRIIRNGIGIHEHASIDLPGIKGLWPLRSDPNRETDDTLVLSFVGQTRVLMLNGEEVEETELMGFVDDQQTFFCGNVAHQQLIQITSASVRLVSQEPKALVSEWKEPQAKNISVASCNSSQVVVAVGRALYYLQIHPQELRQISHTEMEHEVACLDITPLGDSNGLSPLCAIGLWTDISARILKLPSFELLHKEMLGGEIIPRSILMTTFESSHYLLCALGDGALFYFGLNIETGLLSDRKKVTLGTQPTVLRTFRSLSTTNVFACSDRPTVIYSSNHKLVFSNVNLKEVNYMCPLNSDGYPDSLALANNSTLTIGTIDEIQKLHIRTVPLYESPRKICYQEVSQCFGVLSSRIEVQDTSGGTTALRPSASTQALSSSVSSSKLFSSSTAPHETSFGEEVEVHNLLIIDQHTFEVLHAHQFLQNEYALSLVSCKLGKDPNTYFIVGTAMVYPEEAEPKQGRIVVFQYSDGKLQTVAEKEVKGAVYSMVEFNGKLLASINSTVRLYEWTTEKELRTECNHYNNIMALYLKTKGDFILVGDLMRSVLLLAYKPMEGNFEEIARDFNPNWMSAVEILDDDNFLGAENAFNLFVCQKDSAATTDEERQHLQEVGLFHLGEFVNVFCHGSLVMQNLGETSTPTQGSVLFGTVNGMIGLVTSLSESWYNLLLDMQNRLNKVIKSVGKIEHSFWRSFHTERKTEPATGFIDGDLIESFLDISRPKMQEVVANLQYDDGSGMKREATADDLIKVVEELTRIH

B1: Affinity-tagged DDA1-NT (1-28 aa) (bio-layer interferometry) (domain or fragment)
chain: not shown
notes: DDA1, N-terminal fragment DDA1-NT (1-28 aa); it may be the GST fusion of m3; source: purified recombinant protein
With B1 the Kd was roughly 45 nM.
